Results reported in patent US5801017A, “Production of recombinant factor Xa inhibitor of leech Hirudo medicinalis” (Bio-Technology General Corp., priority 1994, dated 1998).
Where “and” joins values, the source holds several entries; their conditions need not be identical. Equal entries are not always repeated.

What was measured:
[1] = biological target: bovine Factor Xa (bovine) (UniProt P00743)
thrombin [2] = biological target: thrombin
FXa = experiment: chromogenic FXa inhibitory activity assay (hydrolysis of CHG); assay type: biochemical, bovine; details: for Inhibitory activity (specific activity), FXa: 1 mu = amount causing 50% inhibition with 2 nM FXa
Procedure: Increasing amounts of FXaI purified on Mono-Q were preincubated for 3 minutes with 2 pmol bovine FXa in a 1 ml cuvette. The initial rate of hydrolysis of the substrate CHG was monitored at 405 nm (see Example 2). Fraction 47 was the peak fraction of a particular purification experiment.
The assay of FXa inhibitory activity is based on the inhibition of the FXa-mediated hydrolysis of the chromogenic substrate methoxycarbonyl-D-cyclohexylglycyl-glycyl-arginyl p-nitroanilide (CHG) as described below.
The appropriate substrate concentration was determined from the molar absorbance which is 8210 at 342 nm. The reaction mixture contains 50 mM Tris-HCl pH 8.2, 5 mM CaCl2, 200 mM NaCl, 0.1% PEG, 40 μM substrate, and approximately 2 nM FXa. The FXa concentration is determined more precisely from the initial (first 20 seconds) rate of CHG hydrolysis at 40 μM in the absence of inhibitor based on the kinetic parameters mentioned above.
Inhibition of the increase in absorbance may be observed in the presence of the FXa inhibitory activity of an FXa inhibitor such as FXaI of the present invention. The inhibitor concentration is the difference in absorbance between the reaction in the presence and absence of inhibitor multiplied by the FXa concentration.
This determination assumes the formation of a 1:1 enzyme-inhibitor complex, and further assumes that the dissociation constant is low enough (i.e., tight binding) to enable essentially total binding of the inhibitor (FXaI) to the enzyme (FXa). In fact, the saturation shape of the dose-response curve (FIG. 3) provides evidence that a finite and not negligible dissociation of the inhibitor-enzyme complex occurs under these conditions. The dose response curve is represented by the degree of inhibition versus FXaI concentration and is further described in Section 5.2.
The degree of dissociation of the FXa-FXaI complex is characterized by the inhibition constant (Ki) and may be determined from the inhibited velocity of the hydrolysis of the chromogenic substrate CHG. […] The Ki of naturally occurring FXa in the chromogenic assay is about 9 nM.
The determination of inhibitor concentration determined by the above method is therefore probably underestimated. It was found useful to define the FXaI concentration as the protein concentration (IC50) required to obtain a constant degree of inhibition, usually 50% and to define the amount causing 50% inhibition under these reaction conditions to be 1 milliunit (mu) or 1 pmol. IC50 is generally higher than Ki, and depending on the type of inhibition, can be shown to depend variously on substrate concentration, Ki, Km and other factors (Segel, I. (1974) "Enzyme Kinetics", Wiley Interscience). In fact, the range of values of IC50 was determined to be about 10-20 nM.
The FXaI activity assay used to determine concentration during purification and characterization was performed in an Elisa Titertek Twin Reader, Type 380 (EF LAB). The final activity measurement of purified protein was also performed in a Phillips (model PU 8720) UV/Vis scanning spectrophotometer.

thrombin [3] = experiment: thrombin inhibition assay according to Lottenberg et al.; assay type: biochemical
Procedure: The refolded and dialyzed protein so obtained was assayed for FXa inhibitory activity by the biochemical chromogenic assay described in Example 2. The results are shown in Table 6 as milliunits per mg protein (mu/mg). The amount of protein causing 50% inhibition in an assay mixture containing 2 nM FXa is defined as 1 mu. In addition, the refolded protein was also tested for its inhibitory effect on thrombin, another proteolytic enzyme of the coagulation cascade, which was assayed according to Lottenberg et al. Methods Enzymol. 80:341-361 (1981).

[4] = biological target: bovine Factor Xa (bovine) (UniProt P00743); remark: listed apart in the source
human plasma = experiment: APTT coagulation assay in human plasma; assay type: biochemical
Procedure: (§1) APTT (activated partial thromboplastin time) of fresh murine or human plasma was monitored by visual assessment of its clotting in the absence or presence of various amounts of FXaI. Briefly, FXaI (up to 50 μl), 100 μl of plasma and 100 μl of partial thromboplastin (Actin-FS) were incubated for 3 minutes at 37° C. The coagulation cascade was activated by the addition of 100 μl of 20 mM CaCl2. The FXaI concentration in the abscissa is based on the assumption that 1 mu=1 pmol. Murine plasma--.circle-solid.; human plasma--.diamond-solid.. The arrows indicate the FXaI concentration at which doubling of the APTT is obtained.
(§2) The inhibitory activity of FXaI was also assayed as the increase of the activated partial thromboplastin time (APTT) essentially as described in Spaethe, Haemostasis, AHS/Deutschland GmbH, Munich (1984), using as reagent Actin FS (Dade), which contains ellagic acid for activation of Factors XII and Factor XI, and soy bean phospholipid. Under these conditions, and in the presence of 20 mM CaCl2, only the intrinsic pathway of coagulation is activated.
(§3) Isoform A (the major fraction of naturally occurring FXaI isolated from DLS) was used in these experiments. […] The protein concentration of this batch was assayed by SDS-Bradford (Macart and Gerbaut, Clin. Chim. Acta 122:93-101 (1982)) and was determined to be ~20 μg/ml.

murine plasma = experiment: APTT coagulation assay in murine plasma; assay type: biochemical
Procedure: as §1, §2, §3

[5] = biological target: FXaI prepeptide expressed by plasmid pFSHI-6 (Met-His-His-His-His-His-His-Gly-Thr-Asp-Asp-Asp-Asp-Lys-FXaI) (Hirudo medicinalis)
[6] = biological target: bovine Factor Xa (bovine) (UniProt P00743); remark: listed apart in the source
Factor Xa [7] = biological target: Factor Xa
Factor Xa [8] = experiment: prothrombinase complex assay, modified protocol (50 pM FXa, 1.35 µM prothrombin)
Factor Xa [9] = experiment: prothrombinase complex assay (FXa 250 pM, prothrombin 2.67 µM, FVa, cephalin, Ca++)
[10] = biological target: bovine Factor Xa (bovine) (UniProt P00743); remark: listed apart in the source
Target sequence in this assay (P00743 41-492): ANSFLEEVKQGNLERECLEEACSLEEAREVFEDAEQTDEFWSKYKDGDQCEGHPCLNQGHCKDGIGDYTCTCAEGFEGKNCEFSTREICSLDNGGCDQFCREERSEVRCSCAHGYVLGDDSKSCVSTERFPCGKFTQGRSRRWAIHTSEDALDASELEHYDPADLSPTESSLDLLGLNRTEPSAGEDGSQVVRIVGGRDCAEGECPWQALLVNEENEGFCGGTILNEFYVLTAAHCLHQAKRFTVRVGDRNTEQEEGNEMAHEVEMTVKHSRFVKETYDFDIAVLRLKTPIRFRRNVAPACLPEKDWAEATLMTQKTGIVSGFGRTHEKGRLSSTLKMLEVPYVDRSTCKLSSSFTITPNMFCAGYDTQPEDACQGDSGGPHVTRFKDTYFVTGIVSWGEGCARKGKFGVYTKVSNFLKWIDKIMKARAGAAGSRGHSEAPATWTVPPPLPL

Factor Xa [11] = biological target: Factor Xa; remark: listed apart in the source
[12] = biological target: bovine Factor Xa (bovine) (UniProt P00743); remark: listed apart in the source
Target sequence in this assay (P00743 41-492): as above

[13] = biological target: bovine Factor Xa (bovine) (UniProt P00743); remark: listed apart in the source
Target sequence in this assay (P00743 41-492): as above

[14] = biological target: bovine Factor Xa (bovine) (UniProt P00743); remark: listed apart in the source
Target sequence in this assay (P00743 41-492): as above

“isoform B of naturally occurring FXaI isolated from DLS” was tested, and the Specific activity, mu/mg (inhibition of FXa, chromogenic assay) [1] was 507 mu/mg and the Specific activity, mu/mg (inhibition of thrombin) (thrombin [2]) was < 1 mu/mg.

“Refolded 11"f": refolded fusion protein: 63 N-terminal amino acids of modified Cu/Zn-SOD, met-phe-val linker, FXaI tyr26 to gly110; plasmid pDeo-S-XaI-11"f"” was tested, and the “Inhibitory activity (specific activity), FXa” value (FXa; listed as Refolded 11"f" Batch 1) was 150 mu/mg, the “Inhibitory activity (specific activity), FXa” value (FXa; listed as Refolded 11"f" Batch 2) was 95 mu/mg and the “Inhibitory activity (specific activity), FXa” value (FXa; listed as Refolded 11"f" Batch 3) was 89 mu/mg. For the same molecule, the “specificity for FXa versus thrombin” value (FXa; ratio of specific activities) was “greater than 80 fold” and the “Inhibitory activity (specific activity), Thrombin” value (thrombin [3]) was < 1 mu/mg.

Molecule “isoform A of naturally occurring FXaI isolated from DLS” has an activity in the chromogenic assay [4] of 164 mu/ml.

For “Isoform A: major fraction of naturally occurring FXaI from DLS, eluted by low salt gradient, 13-14 kD”, the “activity in the chromogenic assay, equivalent” value (FXa; assuming tight binding between FXa and inhibitor) was 164 pmol/mL, the “activity in the chromogenic assay” value (FXa; batch of ~20 μg/ml protein) was 164 mu/ml and the “concentration causing doubling of the APTT” value (human plasma) was 10 mu/ml. For the same molecule, the “concentration causing doubling of the APTT, based on protein concentration” value (human plasma) was 87 nM, the “concentration causing doubling of the APTT” value (murine plasma) was 3.5 mu/ml and the “concentration causing doubling of the APTT, based on protein concentration” value (murine plasma) was 30 nM.

Work on “Enterokinase (Biozyme, Great Britain) (enzyme)” yielded a cleavage efficiency by SDS-PAGE analysis [5] of 95%.

With “naturally occurring FXaI (Factor Xa inhibitor) purified from dilute leech saliva (DLS) of Hirudo medicinalis” the IC50 in the chromogenic FXa assay [6] was 10 to 20 nM, the IC50 in the prothrombinase complex assay (generation of thrombin from prothrombin) (Factor Xa [7]) was 0.19 nM and the Ki (Factor Xa [8]) was 0.12 nM. It also gave a Ki (Factor Xa [9]) of 0.072 nM.

“Met-His-His-His-His-His-His-Gly-Thr-Asp-Asp-Asp-Asp-Lys-FXaI [FXaI prepeptide]” was tested, and the “FXa inhibitory specific activity” value (FXa; prior to cleavage with enterokinase) was 1000-1200 mu/mg protein.

B1: FXaI prepeptide expressed by plasmid pFSHI-6 (Met-His-His-His-His-His-His-Gly-Thr-Asp-Asp-Asp-Asp-Lys-FXaI) (protein)
chain: MHHHHHHGTDDDDKYEVIYVDDPCEDSDCEDGNKCSPVTNECDCSPVRCRLHCNFYVKDSNGCETCACEPKCKHKNCPTGHHCNKLTNKCELKKQRRMG
For B1, the FXa inhibitory specific activity in the chromogenic assay, prior to cleavage (mu/mg protein) [10] was 1000 and 1200.

B2: mature recombinant FXaI obtained by enterokinase cleavage of the pFSHI-6 prepeptide (protein)
chain: YEVIYVDDPCEDSDCEDGNKCSPVTNECDCSPVRCRLHCNFYVKDSNGCETCACEPKCKHKNCPTGHHCNKLTNKCELKKQRRMG
In the case of B2, the FXa inhibitory specific activity in the chromogenic assay, after removal of the extension peptide by chromatography [10] is reported as 8000 mU/mg, the FXa inhibitory specific activity in the chromogenic assay, following cleavage with enterokinase (mu/mg protein) [10] is reported as 4000 and 4500 and the concentration causing doubling of the APTT (Factor Xa [11]) is reported as 12.2 µg/mL.

B3: mature recombinant FXaI obtained by CNBr cleavage of the FXaI dimer (protein)
chain: B2 chain
B3 was tested, and the specific FXa inhibitory activity in the chromogenic assay (route I: cleaved, then refolded) [12] was 1900 mU/mg, the specific activity in the chromogenic assay (route II: refolded, then cleaved with CNBr), A [13] was 2470 mu/mg and the specific activity in the chromogenic assay (route II: refolded, then cleaved with CNBr), B [14] was 4700 mu/mg.

B4: cleaved, refolded product: mature FXaI from the FXaI dimer (plasmid pMLK-XaI-D-11"m") cleaved with CNBr, then refolded (protein)
chain: B2 chain
For B4, the “specific FXa inhibitory activity” value (FXa; Route I: dimer cleaved with CNBr, then refolded) was 1900 mU/mg.
